According to patent publication US20020132976A1, “Immunogenic peptides derived from prostate-specific antigen (PSA) and uses thereof” (priority 2000, published 2002):
Marks after values point to notes of the source that are not given here.

How the values were obtained:
[1] = target: T1, HLA-A0201 molecules on T2 cells (Homo sapiens, UniProt P04439, D140Y/D185E/D98H/E176V/E277Q/G131W/G231S/I119V/I121R/I166T/I218V/L300P/L318F/N151K/N90K/P208A/P217A/Q86G/Q94H/R138H/R169H/T345S); assay: Capacity of PSA derived peptides to bind and stabilize HLA-A0201 molecules on T2 cells (BB7.2 antibody, flow cytometry); format: cell-based; conditions: for Fluorescence Index (FI): T2 cells; for HLA-A0201 binding as judged by Fluorescence Index (FI) values: membrane-bound HLA-A0201 molecules on T2 cells
T1 construct: endogenous in cells; host or cells: T2 cell line (Dr. Peter Creswell, Yale University)
Method: The ability of the PSA derived peptides described in Table 1 to stabilize membrane-bound HLA-A0201 molecule was assessed utilizing the T2 cell line (Dr. Peter Creswell, Yale University). The cell line has been well documented to have a defective TAP (i.e. Transporter for Antigen Processing) transporter function. As a result, the majority of intracellularly generated peptides are not transported into the endoplasmic reticulum and thus are unable to associate with newly synthesized HLA class 1 MHC molecules (i.e. HLA-A0201; Salter, R D and Creswell, P. (1986) EMBO J 5:943). […] The stability of the surface HLA-A0201 molecules can be restored upon interaction with suitable exogenous peptides. The stabilization of the conformation of the class 1 MHC molecules is accompanied by the formation of an immunodominant epitope recognized by a mouse monoclonal antibody (designated BB7.2; American Type Culture Collection (ATCC)). Thus, the detection of this specific epitope is indicative of stable membrane-bound HLA-A0201 molecules loaded with peptide. Subsequent dissociation of peptides from the HLA class 1 MHC molecules results in the loss of BB7.2 monoclonal antibody binding.
T2 cells were propagated in Iscove's complete medium (iscove's medium supplemented with 10% heat-inactivated bovine serum, 120.0 units per ml of penicillin G sodium, 120 μg per ml of streptomycin sulphate, and 0.35 mg per ml of L-glutamine). The ability of PSA peptides (Table 1) to bind and stabilize surface HLA-A0201 molecules on T2 cells was determined utilizing a protocol documented in the art (Deng, Y. (1997) J Immune 158:1507-1515). In essence, 0.5×10^6 T2 cells were incubated with 125.0 μM of the test peptide in 200.0 μl of serum-free culture medium (Iscove's medium supplemented with 120.0 units per ml of penicillin G sodium, 120.0 μg per ml of streptomycin sulphate and 0.35 mg per ml of L-glutamine) overnight at 37° C. Subsequently, cells were washed twice with Iscove's medium (without bovine serum) to remove free PSA peptide. To the cell pellet was added 1.0 ml of complete Iscove's medium (supplemented with fetal bovine serum (10% final)) containing 5.0 μg per ml of brefeldin A (Sigma), 12.5 μg per ml of anisomycin (Sigma) and 5.0 μg per ml of cyclohexamide (Sigma). […] The cells were subsequently incubated 30 min on ice prior to two washes with ice-cold PBA (phosphate buffered saline (pH 7.2) containing 2.0% bovine serum). 100.0 μl of PBA containing 5.0 μg of monoclonal antibody BB7.2 was added to each test sample. The reaction was allowed to proceed on ice for 45 min. Cells were then washed three times with ice-cold PBA. The binding of BB7.2 was detected via the addition of 100.0 μl of PBA containing […] of goat anti-mouse IgG-Fc fluorescein (FITC) conjugate (BETHYL Laboratories Inc.). After a 30 min incubation on ice, cells were twice washed with ice-cold PBA, and twice with ice-cold PBS (pH 7.2). Cells were immediately fixed by the addition of 50.0 μl of 1.0% paraformaldehyde. Samples were analyzed by Flow Cytometry. Results were expressed in units of Fluorescence Index (FI), calculated by the equation: […]
Mean Fluorescence (MF) of experimental sample (peptide treated)−MF of control sample (cells not peptide treated) MF of control sample (cells not peptide treated)
An FI value of 0.5 or greater was deemed to be significant.

A2Kb transgenic mouse = assay: Immunogenicity of PSA peptide in A2Kb transgenic mice (51Cr-release CTL assay); format: in vivo; conditions: 100.0 μg peptide subcutaneously in IFA with I-Ab-restricted peptide; spleenocytes re-stimulated in vitro; 4 hr 51Cr-release, P815-A2Kb targets; FIG. 1
Method: The A2Kb transgenic mouse was used to assess the immunogenicity of the HLA-A0201 binding PSA peptides. Mice of the B1O background (transgenic for the A2Kb chimeric gene) were purchased from the Scripps Clinic in California, USA. Mice were injected subcutaneously at the base of the tail with a dose of inoculum prepared by emulsifying 100.0 μg of the test peptide and 100.0 μg of an I-A^b-restricted peptide (described in Milich, D. R. et al. (1987) J. Immune 139: 1223-1231) in incomplete Freund's adjuvant (IFA). Spleens of the experimental animals were collected on the 10th or 11th day post immunization. Spleenocytes of the experimental mice were prepared and cultured to enrich for CTLs before being assessed for effector activity. In vitro re-stimulation of the in vivo generated CTLs was performed by co-culturing in a 25 cm^2 tissue culture flask 3×10^7 responder cells (i.e. spleenocytes) with 1.3×10^7 irradiated autologous LPS (lipopolysaccharide)-blasts which had been pulsed with the respective peptide (100.0 μg per 10^8 cells). Cultures were kept in a 37° C., humidified CO2 incubator for 6-7 days before being tested for effector function in a standard 4 hr in vitro ^51Cr-release CTL assay as follows. The responders were harvested from the 6-7 day cultures and washed twice with RPMI-1640 medium (without bovine serum). […] Supernatant aliquots were then removed and counted for radioactivity.

[2] = 125.0 μM peptide overnight at 37° C., then 3.0 hr de-stabilization step, FI of 0.5 or greater deemed significant

Fluorescence Index (FI) [1, 2] | HLA-A0201 binding as judged by Fluorescence Index (FI) values [1] | Fluorescence Index (FI) ([1]; 125.0 μM peptide, analysis did not include 3 hr de-stabilization step) | Sequence | Immunogenicity / epitope-specific CTL response (A2Kb transgenic mouse)
2.7 | demonstrated HLA-A0201 binding | – | KLQCVDLHV (CLP316) [CLP-316, PSA derived peptide, preproprotein positions 170-178] | immunogenic and capable of eliciting an epitope-specific CTL response
– | does not exhibit binding | 0.2** | PLYDMSLLK (CLP320) [CLP-320] | –
0 | – | – | DLHVISNDV [CLP-317] | –

The remaining lines, values behind:

Sequence | Fluorescence Index (FI) [1, 2] | HLA-A0201 binding as judged by Fluorescence Index (FI) values [1] | Fluorescence Index (FI) ([1]; 125.0 μM peptide, analysis did not include 3 hr de-stabilization step) | Immunogenicity / epitope-specific CTL response (A2Kb transgenic mouse)
VLVHPQWVL [CLP-314] | 1.1 | demonstrated HLA-A0201 binding | – | –
MWVPVVFL (CLP313) [CLP-313, PSA derived peptide, preproprotein positions 1-8] | 1.0 | demonstrated HLA-A0201 binding | – | –
DLPTQEPAL (CLP315) [CLP-315, PSA derived peptide, preproprotein positions 140-148] | 0 | – | – | –
